Experimental data reported in the supplement of paper PMC11316812.
± gives the standard deviation of the averaged measurements.

What was measured:
[1] = tested on: MCF7; test: percentage of EdU-negative (G0-arrested) nuclei per well, 72 h; higher = more G0 arrest; conditions: reference: sequence is the full UniProt precursor, the tested protein was the secreted form or ectodomain
[2] = tested on: hTERT-HMEC; test: as above; conditions: reference: sequence is the full UniProt precursor, the tested protein was the secreted form or ectodomain
[3] = protein concentration 0.0225 µM
[4] = protein concentration 0.00875 µM
[5] = protein concentration 0.0875 µM
[6] = protein concentration 0.03125 µM
[7] = protein concentration 0.3125 µM
[8] = protein concentration 0.0134286 µM
[9] = protein concentration 0.134286 µM
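Also: secreted proteins added to cultured cells, EdU pulse at the end, nuclei found by Hoechst imaging, EdU status from nuclear versus surrounding ring intensity ratio, PBS as neutral control.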

Substance: MLLLVTSLLLCELPHPAFLLIPEKSDLRTVAPASSLNVRFDSRTMNLSWDCQENTTFSKCFLTDKKNRVVEPRLSNNECSCTFREICLHEGVTFEVHVNTSQRGFQQKLLYPNSGREGTAAQNFSCFIYNADLMNCTWARGPTAPRDVQYFLYIRNSKRRREIRCPYYIQDSGTHVGCHLDNLSGLTSRNYFLVNGTSREIGIQFFDSLLDTKKIERFNPPSNVTVRCNTTHCLVRWKQPRTYQKLSYLDFQYQLDVHRKNTQPGTENLLINVSGDLENRYNFPSSEPRAKHSVKIRAADVRILNWSSWSEAIEFGSDDGNLGSVYIYVLLIVGTLVCGIVLGFLFKRFLRIQRLFPPVPQIKDKLNDNHEVEDEIIWEEFTPEEGKGYREEVLTVKEIT
- percentage of EdU-negative [1, 3]: 23.5 ± 1.9%
- percentage of EdU-negative ([1]; protein concentration 0.225 µM): 25.3 ± 2.3%
- percentage of EdU-negative [2, 3]: 5.11 ± 0.35%
- percentage of EdU-negative ([2]; protein concentration 0.225 µM): 4.81 ± 0.71%

Substance: MVLWESPRQCSSWTLCEGFCWLLLLPVMLLIVARPVKLAAFPTSLSDCQTPTGWNCSGYDDRENDLFLCDTNTCKFDGECLRIGDTVTCVCQFKCNNDYVPVCGSNGESYQNECYLRQAACKQQSEILVVSEGSCATDAGSGSGDGVHEGSGETSQKETSTCDICQFGAECDEDAEDVWCVCNIDCSQTNFNPLCASDGKSYDNACQIKEASCQKQEKIEVMSLGRCQDNTTTTTKSEDGHYARTDYAENANKLEESAREHHIPCPEHYNGFCMHGKCEHSINMQEPSCRCDAGYTGQHCEKKDYSVLYVVPGPVRFQYVLIAAVIGTIQIAVICVVVLCITRKCPRSNRIHRQKQNTGHYSSDNTTRASTRLI [Q9UIK5]
- percentage of EdU-negative [1, 4]: 23.6 ± 4.7%
- percentage of EdU-negative [1, 5]: 28.2 ± 2%
- percentage of EdU-negative [2, 4]: 5.34 ± 0.33%
- percentage of EdU-negative [2, 5]: 11.1 ± 2.2%

Substance: MVMLLLLLSALAGLFGAAEGQAFHLGKCPNPPVQENFDVNKYLGRWYEIEKIPTTFENGRCIQANYSLMENGKIKVLNQELRADGTVNQIEGEATPVNLTEPAKLEVKFSWFMPSAPYWILATDYENYALVYSCTCIIQLFHVDFAWILARNPNLPPETVDSLKNILTSNNIDVKKMTVTDQVNCPKLS
- percentage of EdU-negative [1, 3]: 24.66 ± 0.099%
- percentage of EdU-negative ([1]; protein concentration 0.225 µM): 25.9 ± 3%
- percentage of EdU-negative [2, 3]: 4.945 ± 0.022%
- percentage of EdU-negative ([2]; protein concentration 0.225 µM): 4.745 ± 0.02%

Substance: MVFLPLKWSLATMSFLLSSLLALLTVSTPSWCQSTEASPKRSDGTPFPWNKIRLPEYVIPVHYDLLIHANLTTLTFWGTTKVEITASQPTSTIILHSHHLQISRATLRKGAGERLSEEPLQVLEHPRQEQIALLAPEPLLVGLPYTVVIHYAGNLSETFHGFYKSTYRTKEGELRILASTQFEPTAARMAFPCFDEPAFKASFSIKIRREPRHLAISNMPLVKSVTVAEGLIEDHFDVTVKMSTYLVAFIISDFESVSKITKSGVKVSVYAVPDKINQADYALDAAVTLLEFYEDYFSIPYPLPKQDLAAIPDFQSGAMENWGLTTYRESALLFDAEKSSASSKLGITMTVAHELAHQWFGNLVTMEWWNDLWLNEGFAKFMEFVSVSVTHPELKVGDYFFGKCFDAMEVDALNSSHPVSTPVENPAQIREMFDDVSYDKGACILNMLREYLSADAFKSGIVQYLQKHSYKNTKNEDLWDSMASICPTDGVKGMDGFCSRSQHSSSSSHWHQEGVDVKTMMNTWTLQKGFPLITITVRGRNVHMKQEHYMKGSDGAPDTGYLWHVPLTFITSKSDMVHRFLLKTKTDVLILPEEVEWIKFNVGMNGYYIVHYEDDGWDSLTGLLKGTHTAVSSNDRASLINNAFQLVSIGKLSIEKALDLSLYLKHETEIMPVFQGLNELIPMYKLMEKRDMNEVETQFKAFLIRLLRDLIDKQTWTDEGSVSERMLRSQLLLLACVHNYQPCVQRAEGYFRKWKESNGNLSLPVDVTLAVFAVGAQSTEGWDFLYSKYQFSLSSTEKSQIEFALCRTQNKEKLQWLLDESFKGDKIKTQEFPQILTLIGRNPVGYPLAWQFLRKNWNKLVQKFELGSSSIAHMVMGTTNQFSTRTRLEEVKGFFSSLKENGSQLRCVQQTIETIEENIGWMDKNFDKIRVWLQSEKLERM [Q9NZ08]
- percentage of EdU-negative [1, 3]: 28.5 ± 2.6%
- percentage of EdU-negative ([1]; protein concentration 0.225 µM): 25.9 ± 1.9%
- percentage of EdU-negative [2, 3]: 5.43 ± 0.72%
- percentage of EdU-negative ([2]; protein concentration 0.225 µM): 9.42 ± 1.9%

Substance: MSALGAVIALLLWGQLFAVDSGNDVTDIADDGCPKPPEIAHGYVEHSVRYQCKNYYKLRTEGDGVYTLNDKKQWINKAVGDKLPECEADDGCPKPPEIAHGYVEHSVRYQCKNYYKLRTEGDGVYTLNNEKQWINKAVGDKLPECEAVCGKPKNPANPVQRILGGHLDAKGSFPWQAKMVSHHNLTTGATLINEQWLLTTAKNLFLNHSENATAKDIAPTLTLYVGKKQLVEIEKVVLHPNYSQVDIGLIKLKQKVSVNERVMPICLPSKDYAEVGRVGYVSGWGRNANFKFTDHLKYVMLPVADQDQCIRHYEGSTVPEKKTPKSPVGVQPILNEHTFCAGMSKYQEDTCYGDAGSAFAVHDLEEDTWYATGILSFDKSCAVAEYGVYVKVTSIQDWVQKTIAEN
- percentage of EdU-negative [1, 6]: 23.8 ± 3%
- percentage of EdU-negative [1, 7]: 23.1 ± 0.73%
- percentage of EdU-negative [2, 6]: 4.46 ± 0.32%
- percentage of EdU-negative [2, 7]: 5.96 ± 1.1%

Substance: P20908
- percentage of EdU-negative [1, 8]: 23.71 ± 0.12%
- percentage of EdU-negative [1, 9]: 28.6 ± 1.4%
- percentage of EdU-negative [2, 8]: 5.6 ± 0.17%
- percentage of EdU-negative [2, 9]: 25.8 ± 0.52%
